This note sets out measurements from EP0873354B1.

The target in assay [1] is rat liver AMPK α1 isoform (affinity purified α1 AMPK, native enzyme) (rat) (UniProt P54645). As to the kind of experiment: peptide substrate affinity chromatography of rat liver preparations, single pass.
For assay [2] the target is unchanged. As to the kind of experiment: peptide substrate affinity chromatography of rat liver preparations, with recycling.

UniProt P54645, sequence (P54645 whole entry, form in doubt, chain 1 of 2, canonical isoform): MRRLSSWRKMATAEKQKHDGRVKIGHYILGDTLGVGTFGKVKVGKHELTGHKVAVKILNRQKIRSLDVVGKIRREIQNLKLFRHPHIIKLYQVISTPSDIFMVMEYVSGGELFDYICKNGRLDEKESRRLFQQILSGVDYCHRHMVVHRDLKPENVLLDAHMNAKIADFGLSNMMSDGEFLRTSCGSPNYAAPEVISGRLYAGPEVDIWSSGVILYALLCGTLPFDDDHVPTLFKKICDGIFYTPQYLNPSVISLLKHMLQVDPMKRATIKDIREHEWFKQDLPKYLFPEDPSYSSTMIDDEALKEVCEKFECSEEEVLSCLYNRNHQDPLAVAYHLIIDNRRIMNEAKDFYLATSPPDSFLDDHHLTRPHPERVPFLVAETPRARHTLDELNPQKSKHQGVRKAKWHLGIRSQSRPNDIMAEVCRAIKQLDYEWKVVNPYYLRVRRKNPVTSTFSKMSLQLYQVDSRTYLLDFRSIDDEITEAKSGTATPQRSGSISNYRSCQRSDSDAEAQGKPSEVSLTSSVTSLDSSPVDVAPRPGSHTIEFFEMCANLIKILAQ
UniProt P54645, sequence (P80385 whole entry, form in doubt, chain 2 of 2, further chain, canonical isoform): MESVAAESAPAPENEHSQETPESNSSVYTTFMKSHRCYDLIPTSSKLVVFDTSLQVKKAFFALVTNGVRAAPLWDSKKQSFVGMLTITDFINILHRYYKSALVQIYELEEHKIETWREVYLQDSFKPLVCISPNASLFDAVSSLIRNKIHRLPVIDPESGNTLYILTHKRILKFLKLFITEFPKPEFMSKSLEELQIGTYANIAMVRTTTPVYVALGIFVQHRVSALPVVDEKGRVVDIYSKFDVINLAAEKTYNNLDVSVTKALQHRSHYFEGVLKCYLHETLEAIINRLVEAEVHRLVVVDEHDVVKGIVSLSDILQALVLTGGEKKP

In the case of ADR1 (222-234)P229 peptide, the proportion of SAMS peptide phosphotransferase activity bound to the peptide affinity column with a single pass in assay [1] fell in the range of 90 to 92%. The substance also came in with a proportion of SAMS peptide phosphotransferase activity bound to the column with recycling in assay [2] of 94%.
